For one sequence, Kd results are on record in US20200347384.

The target of data set [1] is T1, HIV-1 reverse transcriptase (HIV RT) (Human immunodeficiency virus) (UniProt P03366+P03366). Briefly: EMSA. Particulars: TNA at all positions; ~500 pM after 1 h 37 C with snake venom phosphodiesterase (p160). (In EMSA bound probe runs differently from free probe, usually more slowly.)
Data set [2] concerns the target T1, HIV-1 reverse transcriptase (HIV RT) (Human immunodeficiency virus). Put plainly: MST. Conditions: TNA at all positions; triplicate.

As usually defined, the Kd is the constant that tells how readily two partners part at equilibrium. Read a low Kd as higher affinity.

Regarding “AATAGTAAATTGATTTAAAAATTTCATAAATGCTACATAA [HIV-RT 3.17]”, the Kd was 0.196 nM in data set [1] and 0.38 nM in data set [2].
